# In US20170043014A1 (Novo Nordisk, published 2017):
# Target: Recombinant mouse IL-21 (mouse, UniProt Q9ES17 18-146)
# Test: capture style ELISA, clone selection
binder,measurement,value
"Mouse surrogate anti-IL-21 antibody (antibody, IgG1, V domains shown, mIgG1/kappa isotype) VH: EVQLVESGGGLVKPGGSLKLSCAASGFTFNRYSMSWVRQSPEKRLEWVAEISVGGSYTQYVDIVTGRFTISRDNAKNTLYLEMSSLRSEDTAMYYCARLYYSGSGDSYYYAMDYWGQGTSVTVSS VL: QTVLIQSPAIMSASPGEKVTMTCSASSSVSYMHWYQQKSGTSPKRWIYDTSKLASGVPARFSGSGSGTSYSLTISSMEAEDAATYYCQQWNSNPPTFGGGTKLEMK",binding result,binds
